Laboratory results published in PMC2652392, “The Structural Basis of Gas-Responsive Transcription by the Human Nuclear Hormone Receptor REV-ERBβ” (PLoS Biology, 2009).
No end group written: not given here.

Columns and labels:
[1] = target: T1, REV-ERBα ligand-binding domain (residues 274–614 with an internal deletion of residues 324–422) (human, UniProt P20393 274-614, internal deletion of residues 324–422); experiment: FP; no heme, control
T1 sequence: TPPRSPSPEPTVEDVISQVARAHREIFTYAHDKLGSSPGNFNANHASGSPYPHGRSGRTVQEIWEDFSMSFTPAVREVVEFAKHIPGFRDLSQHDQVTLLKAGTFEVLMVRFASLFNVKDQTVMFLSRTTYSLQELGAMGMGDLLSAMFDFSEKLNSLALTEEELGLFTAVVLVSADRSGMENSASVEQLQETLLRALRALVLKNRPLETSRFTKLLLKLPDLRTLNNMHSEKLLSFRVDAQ

[2] = target: T2, REV-ERBβ ligand-binding domain (human, UniProt Q14995 212-579); experiment: FP; no heme, control
T2 chain: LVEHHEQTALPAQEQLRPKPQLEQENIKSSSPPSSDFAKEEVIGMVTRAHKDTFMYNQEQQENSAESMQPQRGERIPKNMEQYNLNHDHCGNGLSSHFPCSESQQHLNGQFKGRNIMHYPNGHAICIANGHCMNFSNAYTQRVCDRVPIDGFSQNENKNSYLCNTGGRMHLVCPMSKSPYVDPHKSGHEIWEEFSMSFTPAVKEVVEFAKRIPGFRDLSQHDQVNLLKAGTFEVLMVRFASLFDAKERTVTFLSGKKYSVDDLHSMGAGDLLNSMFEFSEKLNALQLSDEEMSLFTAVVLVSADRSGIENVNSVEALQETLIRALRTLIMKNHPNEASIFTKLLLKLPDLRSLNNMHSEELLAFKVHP

[3] = target: T1, REV-ERBα ligand-binding domain …; experiment: FP; heme-bound, + SNAP (NO donor)
[4] = target: T2, REV-ERBβ ligand-binding domain; experiment: FP; heme-bound, + SNAP (NO donor)
[5] = target: T1, REV-ERBα ligand-binding domain …; experiment: FP; heme-bound, control
[6] = target: T2, REV-ERBβ ligand-binding domain; experiment: FP; heme-bound, control
[7] = target: T1, REV-ERBα ligand-binding domain …; experiment: FP; no heme, + SNAP (NO donor)
[8] = target: T2, REV-ERBβ ligand-binding domain; experiment: FP; no heme, + SNAP (NO donor)
[9] = target: T3, REV-ERBα ligand-binding domain (residues 274–614 with an internal deletion of residues 324–422) (human, UniProt P20393 274-614, internal deletion of residues 324–422); experiment: fluorescence polarisation; 110 nM N-terminally fluorescein-labelled NCOR peptide with a dilution series of LBD; 100 mM Tris pH 8.2, 150 mM NaCl; apo or heme-bound LBD, with or without the NO donor SNAP (1,200 μM); 384-well plates; conditions: both partners purified
T3 construct: REV-ERBα, human, GenBank CAB53540, residues 274–614 with an internal deletion of residues 324–422; heme is a non-covalent ligand; Modified pET28a vector; also called REV-ERBα LBD; source: E. coli BL21-Gold(DE3) pLysS, with or without hemin in the medium, purified (Ni-NTA)
T3 sequence (looked up): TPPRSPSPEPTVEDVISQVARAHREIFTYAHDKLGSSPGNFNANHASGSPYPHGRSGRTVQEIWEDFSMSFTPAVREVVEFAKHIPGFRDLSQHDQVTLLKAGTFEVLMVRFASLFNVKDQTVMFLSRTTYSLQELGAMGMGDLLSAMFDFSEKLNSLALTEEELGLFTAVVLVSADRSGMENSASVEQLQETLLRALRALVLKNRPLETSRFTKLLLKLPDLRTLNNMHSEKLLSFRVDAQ

B1: NCOR interaction domain I (IDI) peptide (peptide)
peptide: fluorescein-DPASNLGLEDIIRKALMGSF
notes: also called NCOR peptide; Nuclear Receptor Co-repressor peptide
Kd [1]: 4.1 µM | Kd [2]: 16.8 µM | Kd [3]: 2.9 µM | Kd [4]: 99.7 µM | Kd [5]: 51.1 µM | Kd [6]: 193 µM | Kd [7]: 3.7 µM | Kd [8]: 20.4 µM | binding result [9]: binds
